The results in this text go back to paper PMC4277889.

Like-named read-outs stand apart in the source and are kept apart here.

Data set [1] addresses T1, EpCAM (epithelial cell adhesion molecule) (UniProt P16422 24-265).
T1 sequence: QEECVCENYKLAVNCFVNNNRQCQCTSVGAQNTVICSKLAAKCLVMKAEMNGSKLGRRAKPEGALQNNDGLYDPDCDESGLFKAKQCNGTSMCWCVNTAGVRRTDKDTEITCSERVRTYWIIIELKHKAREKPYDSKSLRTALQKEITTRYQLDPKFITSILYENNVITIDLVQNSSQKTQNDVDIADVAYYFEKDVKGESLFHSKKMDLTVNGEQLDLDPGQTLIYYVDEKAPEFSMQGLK
As to the kind of experiment: ACP fluorescence switching.

The target of data set [2] is T1, EpCAM (epithelial cell adhesion …). Nature of the data set: ACP fluorescence switching. The source holds these as a separate data set.

B1: random sequence ACP (ssDNA)
DNA: TAAGTATATCGTGCCTGCGACTATGTTATGATGAGGCAGTCTTTAACCTGACTCGTAATA
modifications: 5' conjugated to polydiacetylene as JYK-01
Turning to B1, the binding result in data set [1] is given as “no binding”.

B2: JYK-01 ACP (polydiacetylene conjugate) (ssDNA)
DNA: TGAAGGTTCGTTGTTTCGGTGGGTGTAGACTCTTTAGAAGAGATACAGATTTTGGGAATG
modifications: 5' amine coupled to diacetylene monomer (TCDA) in polydiacetylene particle
For B2, in data set [2], the binding result is given as “binds”.
